Data on 1 variant can be found in IntAct's records for PubMed 10854325.

The labels stand for the following.
B1: Interleukin-1 receptor-associated kinase 1 (Mus musculus), Q62406 (parent)
chain: MAGGPGPGEPVVPGAQHFLYEVPPWVMCRFYKVMDALEPADWCQFAALIVRDQTELRLCERSEQRTASVLWPWINRNARVADLVHILTHLQLLRARDIITAWHPPAPVVPPSTAAPRPSSISAGSEAGDWSPRKLQSSASTFLSPAFPGSQTHSESELLQVPLPVSLGPPLPSSAPSSTKSSPESPVSGLQRAHPSPFCWPFCEISQGTCNFSEELRIGEGGFGCVYRAVMRNTTYAVKRLKEEADLEWTMVKQSFLTEVEQLSRFRHPNIVDFAGYCAESGLYCLVYGFLPNGSLEDQLHLQTQACSPLSWPQRLDILLGTARAIQFLHQDSPSLIHGDIKSSNVLLDERLMPKLGDFGLARFSRFAGAKASQSSTVARTSTVRGTLAYLPEEYIKTGRLAVDTDTFSFGVVILETLAGQRAVRTQGAKTKYLKDLIEDEAEEAGVTLKSTQPTLWVGVATDAWAAPIAAQIYKKHLDSRPGPCPPQLGLALAQLACCCMHRRAKKRPPMTQVYKRLEGLQAGPPWELEVAGHGSPSPQENSYMSTTGSAQSGDEPWQPLVVTTRAPAQAAQQLQRSPNQPVESDESVPGLSATLHSWHLTPGSHPSPASFREASCTQGGTTRESSVRSSPGFQPTTMEGSPTGSSSLLSSEPPQIIINPARQKMVQKLALYEEGVLDSLQLLSSGFFPGLDLEPEKSQGPEESDEFQS

In the experiment the parent is B1. Particulars: with tolip_mouse Tollip.
As to T66A, the “effect of a mutation on the interaction” value is given as “decreasing interaction”.
